The text below walks through data of patent publication US20200216522A1 (DENALI THERAPEUTICS, published 2020).

This experiment has as its target T1, full-length human Tau (Tau441; 2N4R), recombinant (human, UniProt P10636 1-758).
T1 construct: made in E. coli, His6-Smt3 tag removed; biotinylated through amines for Octet and phage work; also called r-Tau; recombinant Tau
In words: SPR Biacore. As to the method: IgG was purified with protein A affinity chromatography. The affinity of each hulC7 IgG variant for r-Tau was determined by surface plasmon resonance using a Biacore™ T200 instrument. Biacore™ Series S CM5 sensor chips were immobilized with monoclonal mouse anti-human IgG (Fc) antibody (Human antibody capture kit from GE Healthcare). Serial 3-fold dilutions of each hulC7 variant were injected at a flow rate of […]. Each sample was analyzed with 3-minute association and 10-minute dissociation. After each injection, the chip was regenerated using 3 M MgCl₂. Binding response was corrected by subtracting the RU from a flow cell capturing an irrelevant IgG at similar density. A 1:1 Languir model of simultaneous fitting of kₒₙ and koff was used for kinetics analysis.
A further round of affinity maturation was performed by mutating certain amino acids in selected CDR-H1, CDR-L1, and CDR-L3 sequences from Table 9A, as well as the sequence of CDR-H2 (SEQ ID NO:23) of hulC7.v2. Sequence changes were identified in each CDR (Table 9B). Binding affinities were evaluated using Biacore™ (Table 10B).
(In general: Surface plasmon resonance follows binding to a sensor surface in real time, without labels.)

T1 sequence (P10636 other isoform, or with tags, fused parts or gaps limits assumed): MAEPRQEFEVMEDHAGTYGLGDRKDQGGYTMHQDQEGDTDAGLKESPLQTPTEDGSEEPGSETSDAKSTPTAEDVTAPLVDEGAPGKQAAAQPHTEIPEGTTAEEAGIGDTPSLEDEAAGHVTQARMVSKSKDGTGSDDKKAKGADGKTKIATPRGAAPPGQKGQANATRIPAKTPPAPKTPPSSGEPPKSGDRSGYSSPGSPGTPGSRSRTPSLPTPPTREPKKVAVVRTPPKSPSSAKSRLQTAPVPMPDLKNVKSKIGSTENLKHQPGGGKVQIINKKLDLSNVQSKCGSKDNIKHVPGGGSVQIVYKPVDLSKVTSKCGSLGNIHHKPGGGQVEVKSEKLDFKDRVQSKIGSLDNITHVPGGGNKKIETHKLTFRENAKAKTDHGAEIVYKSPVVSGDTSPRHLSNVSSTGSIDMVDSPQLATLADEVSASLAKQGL

B1: Clone with L1_6 (antibody, V domains shown)
VH: EVQLLESGGGLVQPGGSLRLSCAASGFTFSSYGMSWVRQAPGKGLEWVASISGDGGSYIHYADSVKGRFTISRDNSKNTLYLQMNSLRAEDTAVYYCARLPYWGQGTLVTVSS
VL: DIVMTQSPDSLAVSLGERATINCKSSQSLLQSGNQKNYLTWYQQKPGQPPKLLIYWASTRESGVPDRFSGSGSGTDFTLTISSLQAEDVAVYYCQQYNSYPLTFGQGTKVEIKR
notes: based on hu1C7.v2
On to B1, for which the dissociation constant (Kd) – broadly, a measure of binding affinity in units of concentration – was determined as 0.665 nM; the koff (as a rule, the first-order rate constant of dissociation) worked out at 0.00078 s⁻¹; the association rate constant (kon) (as a rule, the second-order rate constant of association) stood at 1.17e+06 M⁻¹ s⁻¹.

B2: Clone with L1_3-9 (antibody, V domains shown)
VH: EVQLLESGGGLVQPGGSLRLSCAASGFTFSSYGMSWVRQAPGKGLEWVASISGDGGSYIHYADSVKGRFTISRDNSKNTLYLQMNSLRAEDTAVYYCARLPYWGQGTLVTVSS
VL: DIVMTQSPDSLAVSLGERATINCKSSQSLHRSGNQKDYLVWYQQKPGQPPKLLIYWASTRESGVPDRFSGSGSGTDFTLTISSLQAEDVAVYYCQQYNSYPLTFGQGTKVEIK
notes: based on hu1C7.v2
Turning to B2, the dissociation constant Kd stood at 0.136 nM, the koff worked out at 0.000154 s⁻¹ and the association rate constant (kon) came to 1.13e+06 M⁻¹ s⁻¹.

B3: Clone with L1_3-7 (antibody, V domains shown)
VH: EVQLLESGGGLVQPGGSLRLSCAASGFTFSSYGMSWVRQAPGKGLEWVASISGDGGSYIHYADSVKGRFTISRDNSKNTLYLQMNSLRAEDTAVYYCARLPYWGQGTLVTVSS
VL: DIVMTQSPDSLAVSLGERATINCKSSQSLHKSGTQKDYLVWYQQKPGQPPKLLIYWASTRESGVPDRFSGSGSGTDFTLTISSLQAEDVAVYYCQQYNSYPLTFGQGTKVEIK
notes: based on hu1C7.v2
For the molecule B3, the Kd worked out at 0.275 nM, the koff amounted to 0.000308 s⁻¹ and the on-rate (kon) was found to be 1.12e+06 M⁻¹ s⁻¹.

B4: Clone with L1_3-10 (antibody, V domains shown)
VH: EVQLLESGGGLVQPGGSLRLSCAASGFTFSSYGMSWVRQAPGKGLEWVASISGDGGSYIHYADSVKGRFTISRDNSKNTLYLQMNSLRAEDTAVYYCARLPYWGQGTLVTVSS
VL: DIVMTQSPDSLAVSLGERATINCKSSQSLHRSGTQKNYLVWYQQKPGQPPKLLIYWASTRESGVPDRFSGSGSGTDFTLTISSLQAEDVAVYYCQQYNSYPLTFGQGTKVEIK
notes: based on hu1C7.v2
For B4, the Kd worked out at 0.157 nM, the koff turned out to be 0.000147 s⁻¹ and the kon was 937000 M⁻¹ s⁻¹.

B5: Clone with L3_6 (antibody, V domains shown)
VH: EVQLLESGGGLVQPGGSLRLSCAASGFTFSSYGMSWVRQAPGKGLEWVASISGDGGSYIHYADSVKGRFTISRDNSKNTLYLQMNSLRAEDTAVYYCARLPYWGQGTLVTVSS
VL: DIVMTQSPDSLAVSLGERATINCKSSQSLLNSGNQKNYLTWYQQKPGQPPKLLIYWASTRESGVPDRFSGSGSGTDFTLTISSLQAEDVAVYYCQQYSSYPLTFGQGTKVEIKR
notes: based on hu1C7.v2
For B5, the Kd is 0.69 nM, the off-rate constant (koff) came to 0.00057 s⁻¹ and the kon is 826000 M⁻¹ s⁻¹.

B6: Clone with L1_3, L3, and H1_HCv2 (antibody, V domains shown)
VH: EVQLLESGGGLVQPGGSLRLSCAASGFTFSQVGMSWVRQAPGKGLEWVASISGDGGSYIHYADSVKGRFTISRDNSKNTLYLQMNSLRAEDTAVYYCARLPYWGQGTLVTVSS
VL: DIVMTQSPDSLAVSLGERATINCKSSQSLHRSGTQKDYLVWYQQKPGQPPKLLIYWASTRESGVPDRFSGSGSGTDFTLTISSLQAEDVAVYYCQQYNSYPLTFGQGTKVEIK
Take B6: the dissociation constant (Kd) worked out at 0.119 nM, the koff stood at 0.000116 s⁻¹ and the on-rate (kon) is 982000 M⁻¹ s⁻¹.

B7: Clone with L3_7 (antibody, V domains shown)
VH: EVQLLESGGGLVQPGGSLRLSCAASGFTFSSYGMSWVRQAPGKGLEWVASISGDGGSYIHYADSVKGRFTISRDNSKNTLYLQMNSLRAEDTAVYYCARLPYWGQGTLVTVSS
VL: DIVMTQSPDSLAVSLGERATINCKSSQSLLNSGNQKNYLTWYQQKPGQPPKLLIYWASTRESGVPDRFSGSGSGTDFTLTISSLQAEDVAVYYCQQYNAYPLTFGQGTKVEIKR
notes: based on hu1C7.v2
As for B7, the Kd is 1.19 nM, the koff turned out to be 0.000817 s⁻¹ and the kon came out at 685000 M⁻¹ s⁻¹.

B8: Clone with L3_5 (antibody, V domains shown)
VH: EVQLLESGGGLVQPGGSLRLSCAASGFTFSSYGMSWVRQAPGKGLEWVASISGDGGSYIHYADSVKGRFTISRDNSKNTLYLQMNSLRAEDTAVYYCARLPYWGQGTLVTVSS
VL: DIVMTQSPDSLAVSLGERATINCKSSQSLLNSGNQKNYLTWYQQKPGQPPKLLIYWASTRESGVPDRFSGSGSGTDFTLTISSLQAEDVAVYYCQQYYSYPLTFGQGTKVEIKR
notes: based on hu1C7.v2
Turning to B8, the Kd came out at 0.928 nM, the off-rate (koff) was determined as 0.000787 s⁻¹ and the on-rate (kon) came to 848000 M⁻¹ s⁻¹.

B9: Clone with L1_3-6 (antibody, V domains shown)
VH: EVQLLESGGGLVQPGGSLRLSCAASGFTFSSYGMSWVRQAPGKGLEWVASISGDGGSYIHYADSVKGRFTISRDNSKNTLYLQMNSLRAEDTAVYYCARLPYWGQGTLVTVSS
VL: DIVMTQSPDSLAVSLGERATINCKSSQSLHQSGTQKDYLVWYQQKPGQPPKLLIYWASTRESGVPDRFSGSGSGTDFTLTISSLQAEDVAVYYCQQYNSYPLTFGQGTKVEIK
notes: based on hu1C7.v2
With B9, the Kd was found to be 0.349 nM, the koff is 0.000379 s⁻¹ and the kon was determined as 1.09e+06 M⁻¹ s⁻¹.

B10: Clone with L1_3-8 (antibody, V domains shown)
VH: EVQLLESGGGLVQPGGSLRLSCAASGFTFSSYGMSWVRQAPGKGLEWVASISGDGGSYIHYADSVKGRFTISRDNSKNTLYLQMNSLRAEDTAVYYCARLPYWGQGTLVTVSS
VL: DIVMTQSPDSLAVSLGERATINCKSSQSLHLSGTQKDYLVWYQQKPGQPPKLLIYWASTRESGVPDRFSGSGSGTDFTLTISSLQAEDVAVYYCQQYNSYPLTFGQGTKVEIK
notes: based on hu1C7.v2
Turning to B10, the equilibrium dissociation constant (Kd) is 0.51 nM, the koff was determined as 0.000391 s⁻¹ and the kon came out at 767000 M⁻¹ s⁻¹.

B11: Clone with L1_3-4 (antibody, V domains shown)
VH: EVQLLESGGGLVQPGGSLRLSCAASGFTFSSYGMSWVRQAPGKGLEWVASISGDGGSYIHYADSVKGRFTISRDNSKNTLYLQMNSLRAEDTAVYYCARLPYWGQGTLVTVSS
VL: DIVMTQSPDSLAVSLGERATINCKSSQSLHNSGTQKDYLVWYQQKPGQPPKLLIYWASTRESGVPDRFSGSGSGTDFTLTISSLQAEDVAVYYCQQYNSYPLTFGQGTKVEIK
notes: based on hu1C7.v2
As for B11, the Kd turned out to be 0.206 nM, the koff is 0.00031 s⁻¹ and the association rate constant (kon) came out at 1.5e+06 M⁻¹ s⁻¹.

B12: Clone with L1_7 (antibody, V domains shown)
VH: EVQLLESGGGLVQPGGSLRLSCAASGFTFSSYGMSWVRQAPGKGLEWVASISGDGGSYIHYADSVKGRFTISRDNSKNTLYLQMNSLRAEDTAVYYCARLPYWGQGTLVTVSS
VL: DIVMTQSPDSLAVSLGERATINCKSSQSLLNAGNQKNYLTWYQQKPGQPPKLLIYWASTRESGVPDRFSGSGSGTDFTLTISSLQAEDVAVYYCQQYNSYPLTFGQGTKVEIKR
notes: based on hu1C7.v2
For B12, the Kd was 0.651 nM, the koff is 0.000719 s⁻¹ and the kon is 1.1e+06 M⁻¹ s⁻¹.

B13: Clone with L1_3-1 (antibody, V domains shown)
VH: EVQLLESGGGLVQPGGSLRLSCAASGFTFSSYGMSWVRQAPGKGLEWVASISGDGGSYIHYADSVKGRFTISRDNSKNTLYLQMNSLRAEDTAVYYCARLPYWGQGTLVTVSS
VL: DIVMTQSPDSLAVSLGERATINCKSSQSLVRSGTQKDYLVWYQQKPGQPPKLLIYWASTRESGVPDRFSGSGSGTDFTLTISSLQAEDVAVYYCQQYNSYPLTFGQGTKVEIK
notes: based on hu1C7.v2
Consider B13, for which the Kd is 0.211 nM, the koff stood at 0.000213 s⁻¹ and the kon is 1.01e+06 M⁻¹ s⁻¹.

B14: Clone with L1_3-3 (antibody, V domains shown)
VH: EVQLLESGGGLVQPGGSLRLSCAASGFTFSSYGMSWVRQAPGKGLEWVASISGDGGSYIHYADSVKGRFTISRDNSKNTLYLQMNSLRAEDTAVYYCARLPYWGQGTLVTVSS
VL: DIVMTQSPDSLAVSLGERATINCKSSQSLHYSGTQKDYLVWYQQKPGQPPKLLIYWASTRESGVPDRFSGSGSGTDFTLTISSLQAEDVAVYYCQQYNSYPLTFGQGTKVEIK
notes: based on hu1C7.v2
As for B14, the Kd was found to be 0.078 nM, the off-rate (koff) is 0.000214 s⁻¹ and the on-rate (kon) stood at 2.72e+06 M⁻¹ s⁻¹.

B15: Clone with L1_3-5 (antibody, V domains shown)
VH: EVQLLESGGGLVQPGGSLRLSCAASGFTFSSYGMSWVRQAPGKGLEWVASISGDGGSYIHYADSVKGRFTISRDNSKNTLYLQMNSLRAEDTAVYYCARLPYWGQGTLVTVSS
VL: DIVMTQSPDSLAVSLGERATINCKSSQSLHMSGTQKDYLVWYQQKPGQPPKLLIYWASTRESGVPDRFSGSGSGTDFTLTISSLQAEDVAVYYCQQYNSYPLTFGQGTKVEIK
notes: based on hu1C7.v2
For the molecule B15, the Kd came to 0.419 nM, the off-rate (koff) came out at 0.000442 s⁻¹ and the kon worked out at 1.05e+06 M⁻¹ s⁻¹.

B16: Clone with L1_3-11 (antibody, V domains shown)
VH: EVQLLESGGGLVQPGGSLRLSCAASGFTFSSYGMSWVRQAPGKGLEWVASISGDGGSYIHYADSVKGRFTISRDNSKNTLYLQMNSLRAEDTAVYYCARLPYWGQGTLVTVSS
VL: DIVMTQSPDSLAVSLGERATINCKSSQSLHRSGTQKDYLAWYQQKPGQPPKLLIYWASTRESGVPDRFSGSGSGTDFTLTISSLQAEDVAVYYCQQYNSYPLTFGQGTKVEIK
notes: based on hu1C7.v2
B16: the dissociation constant Kd worked out at 0.231 nM, the off-rate (koff) stood at 0.000223 s⁻¹ and the kon worked out at 965000 M⁻¹ s⁻¹.

B17: Clone with L1_3-2 (antibody, V domains shown)
VH: EVQLLESGGGLVQPGGSLRLSCAASGFTFSSYGMSWVRQAPGKGLEWVASISGDGGSYIHYADSVKGRFTISRDNSKNTLYLQMNSLRAEDTAVYYCARLPYWGQGTLVTVSS
VL: DIVMTQSPDSLAVSLGERATINCKSSQSLLRSGTQKDYLVWYQQKPGQPPKLLIYWASTRESGVPDRFSGSGSGTDFTLTISSLQAEDVAVYYCQQYNSYPLTFGQGTKVEIK
notes: based on hu1C7.v2
For the molecule B17, the dissociation constant (Kd) came out at 0.13 nM, the dissociation rate constant (koff) came out at 0.000143 s⁻¹ and the kon was determined as 1.1e+06 M⁻¹ s⁻¹.
